# From paper PMC11348266
# Target: GRA4 (UniProt Q27002)
# Experiment: exogenous co-IP
# Conditions: reference: wild type TBK1; sites S172
substance,measurement,value
TBK1 (from UniProt Q9UHD2) TBK1 S172A,binding against the reference,weaker
